Results on four molecules are retold here after patent US11672846B2, “Soluble bacterial and fungal proteins and methods and uses thereof in inhibiting and dispersing biofilm” (priority 2014, dated 2023).

“Also recorded” adds a separate entry of the source. Like-named read-outs stand apart in the source and are kept apart here.

Series [1] relates to Pel biofilms of P. aeruginosa PAO1 ΔwspFΔpslpBADpel. The series can be described thus: Dispersal of pre-formed Pel biofilms (crystal violet).
Text: The methodology to generate pre-formed Pel biofilms is identical to that of Psl biofilms, described in Example 4 with the exception that the strain used is P. aeruginosa PAO1 ΔwspFΔpslpBADpel.
Series [2] deals with pre-formed A. fumigatus GAG biofilms. The format is cell-based. The note with it: crystal violet.
The next series has as its system A. fumigatus GAG biofilm. As to the kind of experiment: Inhibition of GAG-dependent A. fumigatus biofilm formation (crystal violet). The series is classed as cell-based.
Series [3] has as its system P. aeruginosa PAO1 ΔwspFΔpslpBADpel. The series can be described thus: Inhibition of Pel biofilm formation in static culture (crystal violet).
Series [4] deals with Psl biofilms of P. aeruginosa PAO1 pBADpsl. The series can be described thus: Dispersal of pre-formed Psl biofilms (crystal violet). The format is cell-based, Pseudomonas aeruginosa.
Series [5] relates to PNAG-overproducing E. coli biofilms. As to the kind of experiment: Dispersal of pre-formed PNAG-dependent E. coli biofilms.
Experimental: Bacterial cultures expressing Psl were inoculated as stated above and were grown at 37° C. overnight with shaking at 200 rpm. All cultures were diluted in 1:100 in LB and arabinose was added to a final concentration of 0.5% (w/v) to induce Psl biosynthesis. Media containing the Psl-producing cultures were supplemented with 200 μg/mL ampicillin and 100 μg/mL kanamycin. The cultures were incubated statically for 24 h at 26° C. to allow for biofilm formation. After incubation non-adherent cells and media were removed by washing the plate with deionized water three times. The wells were filled with 95 μL of 100 mM sodium HEPES buffer pH 7.0 followed by 5 μL of varying concentrations of each hydrolytic enzyme (2 nM-5 μM). Reactions were allowed to proceed for up to 60 min at 25° C. on a rotating nutator at which time, the reaction was quenched by washing the plates with deionized water. The wells were stained with 200 μL of 0.1% (w/v) crystal violet for 10 min, and washed with water three times. Crystal violet dye from Psi cultures was solubilized in 100 μL of 95% ethanol for 10 min with rotation, after which time the absorbance was measured at 595 nm using a SpectraMax M2 from Molecular Devices (Sunnyvale, Calif.). The amount of biofilm is proportional to the absorbance from staining with crystal violet (Merritt et al 2005). All reactions were completed in at least triplicate and 100 mM sodium HEPES buffer pH 7.0 was used as an untreated control. The addition of 2.5 mg/mL kanamycin to culture prior to biofilm formation was used as a positive control as no cell growth occurs.
PNAG-overproducing E. coli was grown at 37° C. overnight in LB broth supplement with 200 ug/mL ampicillin and 100 ug/mL kanamycin with shaking at 200 rpm. An E. coli μgaABCD knockout strain was used as a non-biofilm forming control for background straining.
Series [6] deals with P. aeruginosa PAO1 pBADpsl. As to the kind of experiment: Inhibition of Psl biofilm formation in static culture (crystal violet). The series is classed as cell-based, Pseudomonas aeruginosa.
For series [7] the following is noted: purified protein.
In series [8] the test system is A549 pulmonary epithelial cell line injured by A. fumigatus. The series can be described thus: Chromium release epithelial cell damage assay. As to conditions: recombinant Sph3 hydrolases, up to 24 h.
Experimental: The immortalized airway epithelial cell line A549 was loaded with chromium-51 by incubating monolayers grown in 24-well tissue culture plates with 3 mCi of ^51Cr at 37° C. in 5% CO2 for 24 h. Excess chromium was removed by washing with Hank's Balanced Salt Solution (HBSS). […] For testing germ tubes, conidia were grown for 7 h in SAB media at 37° C., then the fungus was collected and resuspended in DF12K media before 0.5 μM of hydrolase was added. The germ tubes were incubated with hydrolase for 1 h before being added to the A549 cells. After 16, 20 and 24 h of co-incubation, an aliquot of the medium above the cells was retrieved and replaced with fresh media. The cells were then lysed with 6 N NaOH and the lysate collected. The ^51Cr content of the medium and lysates was then measured in a gamma counter and the extent of epithelial cell damage was calculated as a function of the degree of ^51Cr release. Each strain was tested in triplicate, and all results were corrected for spontaneous chromium release by uninfected epithelial cells.
The methodology for prevention of epithelial cell damage caused by A. fumigatus using Sph352-298 is identical to that previously described in Example 19 for the use PelA47-303.
Series [9] relates to RFP-expressing Af293 hyphae. As to the kind of experiment: Uptake of Bodipy-conjugated posaconazole by hyphae (confocal microscopy). The series is classed as cell-based, A. fumigatus. The note with it: 0.5 μM pretreatment 90 min. The protocol:
Red Fluorescent Protein (RFP)-expressing Af293 hyphae were pretreated with 0.5 μM Sph3AC(54-304) hydrolase for 90 min before treatment with Bodipy-conjugated posaconazole (BDP-PCZ). At various time points, samples were fixed and imaged using fluorescent confocal microscopy to determine the kinetics of drug penetration of hyphae.

In series [10] the test system is Botrytis cinerea isolate 7b1. As to the kind of experiment: Lectin staining of Botrytis cinerea hyphae after hydrolase treatment. The series is classed as cell-based. The note with it: 1 μM. As for the experimental part: Botrytis cinerea isolate 7b1 was inoculated at a concentration of 6×10^3 conidia/ml in 500 μl of Brian media on poly-D-lysine-coated coverslips (Corning, Bedford, Mass.) for 17 h at room temperature, in the dark. Samples were incubated either in the presence or absence of 1 μM Sph3AC(54-304). Media was then removed and the hyphae were incubated in PBS with or without 1 μM Sph3AC(54-304) for 1 h at room temperature. Samples were washed twice with PBS, and stained with 30 μg/mL of Wisteria fluoribunda (WFL) lectin conjugated to fluoresceine for 2 h at 4° C. Samples were washed twice with PBS, and fixed with 4% paraformaldehyde for 10 min at 4° C. Samples were washed once and stained with a 1:1000 dilution of DRAQ5™ (eBioscience, San Diego, Calif.) for 5 min at room temperature. Samples were washed once with PBS, mounted onto microscope slides using SlowFade® Gold antifade reagent (life Technologies™, Eugene, Oreg.), and sealed with nail polish. Images were acquired on an Olympus Fluoview confocal laser microscope using 488 and 633 nm lasers coupled with BA505-525 and BA650IF filters, respectively. Z-stacks of 0.2 μm increments were acquired, and 3D-rendered using ImageJ software (National Institutes of Health).

A further series relates to Trichosporon asahii. The series can be described thus: SBA-FITC lectin staining of Trichosporon asahii after hydrolase treatment. The series is classed as cell-based. The note with it: 0.5 μM, 3 h. The protocol:
To assess the effects of hydrolase treatment on Trichosporon asahii, 1×10^5 T. asahii yeast cells or A. fumigatus conidia were inoculated in Dulbecco's Modified Eagle Medium (DMEM), and grown for 10 h at 37° C., 5% CO2 on glass coverslips. Wells were gently washed once with Ham's F-12K (Kaighn's) Medium (F12K) media, and Sph3AC(54-304) was added at a final concentration of 0.5 μM in F12K, and incubated for an additional 3 h at 37° C., 5% CO2. Young hyphae were washed twice with PBS, and stained with FITC tagged SBA for 1 h. The stained samples were washed with PBS and fixed with 4% PFA for 15 min. Slides were then mounted, sealed, and imaged under confocal microscopy with a 488 nm laser (Zeiss).

A further series deals with A. fumigatus hyphae. The series can be described thus: SBA-FITC lectin staining of A. fumigatus hyphae after Ega3 treatment. As to conditions: 0.5 μM, 3 h. The series is classed as cell-based.
For series [11], the system named is preformed A. fumigatus biofilm. The series can be described thus: Ega3 disruption of preformed A. fumigatus biofilm. The series is classed as cell-based. As to conditions: 1 μM, 1.5 h, room temperature. The protocol: To determine the effect hydrolase has on a preformed biofilm, 10^5 A. fumigatus conidia were inoculated per well in DMEM media as above, but in the absence of hydrolase. Following 18 h incubation at 37° C., 5% CO2, the resulting biofilm was treated with Ega346-318 at a final concentration of 1 μM for 1.5 h at room temperature on a nutator. The biofilms were then washed and stained as mentioned above.

Another series deals with A. fumigatus. As to the kind of experiment: Ega3 inhibition of A. fumigatus biofilm formation (crystal violet, imaged). The format is cell-based. The note with it: 1 μM, 18 h. The protocol: A. fumigatus conidia were inoculated into polystyrene, round-bottom 24-well plates at a concentration of 10^5 conidia/well in DMEM media. To assess the inhibition of biofilm formation, Ega346-318 was added at a final concentration of 1 μM and the conidia incubated for 18 h at 37° C., 5% CO2. The resulting biofilms were then gently washed twice with distilled water, and stained with 0.1% crystal violet for 10 min. Samples were washed twice with water and the wells were imaged.

B1: PelA35-291: PelA residues 35-291 from P. protogens Pf-5, SEQ ID NO: 13 (protein, listed as Pseudomonas protogens)
chain: AAPASVGFWYAEQPPLQELAQFEWAVVEPGHMASADVATLRKLGSQPFAYLSVGEFDGNRAALAKQALAQGASPVRNKAWDSQVMDIATPAWREHLFKRAKALQDQGYAGLFLDTLDSFQLLPEADREPQRKALASFLRELHSRLPNLKLFFNRGFEVLGELDGVASAVAVESIHAGWDASAKRYRPVSEADRTWLEGELKPLRARNIPLVAIDYLPANRREEARKLVRQLSQEGFIPVVTTPDLNALSMSTVEVQP
Consider B1, for which, in [1] (1 μM enzyme), the “time to disperse pre-formed Pel biofilm” value was 30 min. In addition, the “dispersal of pre-formed Pel biofilm (in words)” value in series [1] (10-fold dilution of 1 μM, 1 h) is reported as “disperse nearly all the biofilm”. Moreover, the results for the “dispersal of pre-formed GAG biofilm (in words)” value in [2] and in [2] (listed as P. protogens PelA35-291) were “elimination of the GAG biofilm” and “elimination of the GAG biofilms”, respectively. The “prevention of GAG biofilm formation (in words)” value in the series on A. fumigatus GAG biofilm (20 h in Brian media, crystal violet, listed as P. protogens PelA35-291) is on record as “shown to prevent GAG-dependent biofilm formation”. The half-maximal effective concentration (EC50) in [3] (read-out: EC50 of Pel biofilm inhibition, static PAO1ΔwspFΔpslPBADpel culture) came out at 69.3 ± 1.2 nM.

B2: PslG31-442: soluble PslG glycosyl hydrolase construct, residues 31-442, P. aeruginosa PAO1, SEQ ID NO: 11 (protein, listed as Pseudomonas aeruginosa)
chain: EIQVLKAPRAVVWKDFLGVNAQFLWFSPERYNKQIDRLQDLGLEWVRLDLHWDRLETAEDQYQLASLDQLVKDLEARQLKSVFYLVGSARFITTAPFYSPFQDQYPPRDPEVFARRMAMLSQRYPSVAAWQVWNEPNLIGFWRPKADPEGYAKLLQASTIALRMVDPEKPVVSAGMAFFSEMPDGRTMFDALGHLGVESLGTIATYHPYTQLPEGNYPWNLDFVSHANQINRALRNAGVPAIWSTEWGWSAYKGPKELQDIIGVEGQADYVLRRLALMSALDYDRIFLFTLSDLDQRASVRDRDYGLLDLDANPKPVYLALQRFLKVTGPKLRPADPPVTEDLPDGSFSIGWTREDGRNVWLFWSARGGNVRLPKLKEATLHDPLSGKVTPLSGSDGLEVPVKSSLQMLVWE
Take B2: in [4] (58 nM enzyme), the “time to disperse pre-formed Psl biofilm” value is 30 min. The “time to disperse / completely abolish pre-formed Psl biofilm” value in series [4] (86 nM enzyme) stood at 35 min. Besides, the “effect on pre-formed Psl biofilm” value in series [4] (86 nM enzyme, after 20 min) was “significant reduction of the biofilm”. Further, the “dispersal of PNAG-dependent biofilms (in words)” value in series [5] is listed as “had no affect”. Moreover, the “effect on PAO1 growth” value in series [6] (10 μM enzyme) is “did not prevent PAO1 growth”. The molecule also yielded a half-maximal effective concentration (EC50) in [6] (PAO1 pBADpsl, static 24 h at 26° C., crystal violet) of 4.1 ± 1.1 nM. Moreover, the “concentration to which the protein could be concentrated” value in [7] is 8000 to 10000 µg/mL. Also, the “inhibition of Pel biofilm formation (in words)” value in [3] (specificity control) is “did not inhibit Pel biofilm formation; also recorded: unable at preventing biofilm formation”.

B3: Sph3AC(54-304): Sph3 ortholog residues 54-304, Aspergillus clavatus NRRL 1, SEQ ID NO: 22 (protein, listed as Aspergillus clavatus)
chain: MGPKSKVFVPLYVYPAPGAWDPLEDVISKHPDVNFTVVINPGSGPGPEALPDGNYTREIPKLASYENVRLLGYVATTYAKRNISEVRRDIETYAAWPTQSSNANLAVRGIFFDETPQQYDADILAYLRELTDVVKGTSGLGPDHYVVHNPGAIPDSRYLSTADSTVVFEATYATFQERHGAELFDTIPDSHRDQLCAVIHSVPTSVEGSDLRGLVKQVRQVADEIFITHLETDYYAGFGGQWSEFVDLMAS
For B3, the “epithelial cell damage by A. fumigatus, chromium release” value is recorded as “completely protected epithelial cells from damage by A. fumigatus for 24 h” in [8] and “reduced fungal damage to epithelial cells” in [8] (listed as Sph3 from A. clavatus). In addition, the “uptake of fluorescent-tagged posaconazole by hyphae” value in [9] is “increases the activity of antifungals; also recorded: increased the speed and degree of uptake”. In addition, the “dispersal of pre-formed GAG biofilm (in words)” value in [2] is recorded as “capable of disrupting GAG-dependent biofilms”. For the same molecule, the “inhibition of A. fumigatus biofilm formation by recombinant Sph3 (in words)” value with A. fumigatus GAG biofilm was “inhibit the formation of A. fumigatus biofilms in a dose dependent manner”. The “GAG exopolysaccharide on B. cinerea hyphae after treatment” value in series [10] is listed as “complete loss of this exopolysaccharide”. Moreover, in the series on Trichosporon asahii, the “surface GalNAc exopolysaccharide of T. asahii after treatment” value is on record as “complete loss”.

B4: Ega346-318: soluble Ega3 residues 46-318, Aspergillus fumigatus Af293, SEQ ID NO: 21 (protein, listed as Aspergillus fumigatus)
chain: GLGGGGGGEGEEGSGGETTPPEGNYTTAKWQPAVGTKWQIELLYALNDTSVDAEIYDIDLFINDKSTIAGLQRAGRKVICYFSAGSYENWRPDKDKFKDSDLGHDLDDWPGEKWLNISSANVRQIMLDRLDMARDKGCDGVDPDNVDGYDNDNGLDLTQADSISFVNFLANAAHARNMSIGLKNAGDIIPSVIKNMQWSVNEQCAQYNECDTYAVFPQNGKPVFHIEYPKGDKTNNDLSVTASQKNAACDFAGSANFSTVIKNMNLNNWVEYC
As to B4, the “detectable GalNAc on hyphal surface after treatment” value with A. fumigatus hyphae is “complete loss of detectable”. In [11], the “effect on preformed 18 h A. fumigatus biofilm” value is on record as “allowed for disruption of the biofilm”. Also, in the series on A. fumigatus, the “A. fumigatus biofilm formation / adherence in presence of enzyme” value is reported as “prevented biofilm formation; also recorded: completely non-adherent”.

In general, EC50 refers to the midpoint of the concentration-response curve.
